In this series the test system is Escherichia coli TOP10. Kind of series: shrunken log2 fold change of peptide-encoding DNA abundance (4.5 h post-induction vs induction); higher = less antimicrobial activity (less host growth inhibition). The settings on record: time post-induction: 4.5 h; library: site-saturation at positions 5, 18, 19, 20.

These results are taken from the supplement of paper PMC9112550, “Optimization of the antimicrobial peptide Bac7 by deep mutational scanning” (BMC Biology, 2022).
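Also: peptides expressed intracellularly from a pBAD plasmid library in pooled LB shake-flask culture, induced with 0.3% L-arabinose, DNA abundance read by NGS, three biological replicates, DESeq2 with apeglm shrinkage.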

With RRIRVRPPRLPRPRPRPTQFPRP, the “shrunken log2 fold change” value is 0.203.

As to RRIRMRPPRLPRPRPRPWCPPRP, the “shrunken log2 fold change” value was -0.101.

RRIRARPPRLPRPRPRPRMLPRP: the “shrunken log2 fold change” value came to 0.395.

For the sequence RRIRLRPPRLPRPRPRPCCQPRP, the “shrunken log2 fold change” value is -0.194.

Take RRIRKRPPRLPRPRPRPGCEPRP: the “shrunken log2 fold change” value was determined as 1.31.

For the sequence RRIRKRPPRLPRPRPRPLLWPRP, the “shrunken log2 fold change” value turned out to be 0.443.

RRIRRRPPRLPRPRPRPGEEPRP: the “shrunken log2 fold change” value is 0.139.

In the case of RRIRQRPPRLPRPRPRPRTNPRP, the “shrunken log2 fold change” value was 0.158.

Turning to RRIRYRPPRLPRPRPRPDNQPRP, the “shrunken log2 fold change” value is -0.644.

Turning to RRIRQRPPRLPRPRPRPHETPRP, the “shrunken log2 fold change” value is -0.0223.

Regarding RRIRERPPRLPRPRPRPANVPRP, the “shrunken log2 fold change” value was -0.0342.

Turning to RRIRWRPPRLPRPRPRPLMRPRP, the “shrunken log2 fold change” value was found to be 0.858.

Turning to RRIRKRPPRLPRPRPRPVSEPRP, the “shrunken log2 fold change” value is 0.189.

Regarding RRIRIRPPRLPRPRPRPWFKPRP, the “shrunken log2 fold change” value was -1.74.

With RRIRCRPPRLPRPRPRPHTFPRP, the “shrunken log2 fold change” value was -0.467.

Consider RRIRCRPPRLPRPRPRPIVIPRP, for which the “shrunken log2 fold change” value is -1.09.

For RRIRFRPPRLPRPRPRPECNPRP, the “shrunken log2 fold change” value stood at 0.0687.

With RRIRFRPPRLPRPRPRPVNCPRP, the “shrunken log2 fold change” value is -0.15.

RRIRFRPPRLPRPRPRPGLYPRP: the “shrunken log2 fold change” value was -0.171.

RRIRRRPPRLPRPRPRPKHIPRP: the “shrunken log2 fold change” value amounted to 0.0894.

Consider RRIRFRPPRLPRPRPRPKLHPRP, for which the “shrunken log2 fold change” value is -0.0553.

As for RRIRHRPPRLPRPRPRPDFDPRP, the “shrunken log2 fold change” value turned out to be 0.0484.

For RRIRCRPPRLPRPRPRPANQPRP, the “shrunken log2 fold change” value is -0.137.

Turning to RRIRERPPRLPRPRPRPDYLPRP, the “shrunken log2 fold change” value is -0.612.

With RRIRPRPPRLPRPRPRPACIPRP, the “shrunken log2 fold change” value was -0.25.

Consider RRIRFRPPRLPRPRPRPTLQPRP, for which the “shrunken log2 fold change” value was -0.107.

Turning to RRIRGRPPRLPRPRPRPLQRPRP, the “shrunken log2 fold change” value came to 0.762.

As for RRIRRRPPRLPRPRPRPWYVPRP, the “shrunken log2 fold change” value was found to be 0.0457.

For the sequence RRIRYRPPRLPRPRPRPNVQPRP, the “shrunken log2 fold change” value was -0.0298.

As for RRIRVRPPRLPRPRPRPIYHPRP, the “shrunken log2 fold change” value was -0.461.

Take RRIRQRPPRLPRPRPRPHSEPRP: the “shrunken log2 fold change” value is -0.0749.

Regarding RRIRKRPPRLPRPRPRPVCAPRP, the “shrunken log2 fold change” value was determined as 0.904.

Turning to RRIRHRPPRLPRPRPRPKRDPRP, the “shrunken log2 fold change” value stood at 0.158.

RRIRMRPPRLPRPRPRPDIKPRP: the “shrunken log2 fold change” value came to 1.51.

Take RRIRFRPPRLPRPRPRPPKWPRP: the “shrunken log2 fold change” value was found to be 0.286.

As to RRIRQRPPRLPRPRPRPLWQPRP, the “shrunken log2 fold change” value is 0.296.

For the sequence RRIRIRPPRLPRPRPRPVHHPRP, the “shrunken log2 fold change” value was -0.732.

In the case of RRIRIRPPRLPRPRPRPAKAPRP, the “shrunken log2 fold change” value is -0.00404.

RRIRRRPPRLPRPRPRPYAHPRP: the “shrunken log2 fold change” value was 0.082.

With RRIRCRPPRLPRPRPRPLQPPRP, the “shrunken log2 fold change” value is -0.0133.

Consider RRIRYRPPRLPRPRPRPYEYPRP, for which the “shrunken log2 fold change” value was -0.095.

As for RRIRDRPPRLPRPRPRPWWYPRP, the “shrunken log2 fold change” value is -0.738.

Regarding RRIRPRPPRLPRPRPRPWNHPRP, the “shrunken log2 fold change” value is -0.485.

As for RRIRERPPRLPRPRPRPDGHPRP, the “shrunken log2 fold change” value was -0.00149.

As for RRIRRRPPRLPRPRPRPGPMPRP, the “shrunken log2 fold change” value amounted to 0.353.

Turning to RRIRRRPPRLPRPRPRPLSKPRP, the “shrunken log2 fold change” value was determined as 1.95.

On to RRIRHRPPRLPRPRPRPHFCPRP, for which the “shrunken log2 fold change” value is -0.0593.

With RRIRKRPPRLPRPRPRPQWMPRP, the “shrunken log2 fold change” value was -0.307.

RRIRVRPPRLPRPRPRPRACPRP: the “shrunken log2 fold change” value is 0.274.

Turning to RRIRYRPPRLPRPRPRPFWFPRP, the “shrunken log2 fold change” value was -0.264.

Regarding RRIRQRPPRLPRPRPRPVDEPRP, the “shrunken log2 fold change” value is -0.249.

As to RRIRARPPRLPRPRPRPGWHPRP, the “shrunken log2 fold change” value amounted to 0.378.

RRIRPRPPRLPRPRPRPVNDPRP: the “shrunken log2 fold change” value was -0.106.

Regarding RRIRHRPPRLPRPRPRPYCYPRP, the “shrunken log2 fold change” value was -0.577.

With RRIRTRPPRLPRPRPRPTLPPRP, the “shrunken log2 fold change” value came to 0.149.

Take RRIRHRPPRLPRPRPRPWQNPRP: the “shrunken log2 fold change” value was -0.169.

Take RRIRMRPPRLPRPRPRPVHTPRP: the “shrunken log2 fold change” value came out at 0.213.

As for RRIRARPPRLPRPRPRPWHVPRP, the “shrunken log2 fold change” value is -0.0219.

As to RRIRCRPPRLPRPRPRPYFRPRP, the “shrunken log2 fold change” value is -0.759.

Regarding RRIRWRPPRLPRPRPRPTEWPRP, the “shrunken log2 fold change” value worked out at 0.327.

RRIRRRPPRLPRPRPRPFSSPRP: the “shrunken log2 fold change” value is -0.0604.

As for RRIRPRPPRLPRPRPRPRQAPRP, the “shrunken log2 fold change” value worked out at 0.0176.

Take RRIRWRPPRLPRPRPRPYHVPRP: the “shrunken log2 fold change” value is -0.141.

On to RRIRIRPPRLPRPRPRPAYMPRP, for which the “shrunken log2 fold change” value is -0.688.

RRIRGRPPRLPRPRPRPLLNPRP: the “shrunken log2 fold change” value was 0.76.

In the case of RRIRARPPRLPRPRPRPMMWPRP, the “shrunken log2 fold change” value stood at 0.617.

For the sequence RRIRPRPPRLPRPRPRPKFVPRP, the “shrunken log2 fold change” value was -0.0877.

As to RRIRFRPPRLPRPRPRPYNYPRP, the “shrunken log2 fold change” value is -1.03.

For the sequence RRIRVRPPRLPRPRPRPRCNPRP, the “shrunken log2 fold change” value is -0.135.

In the case of RRIRRRPPRLPRPRPRPWAGPRP, the “shrunken log2 fold change” value came out at 0.0855.

Regarding RRIRGRPPRLPRPRPRPFVWPRP, the “shrunken log2 fold change” value is 0.278.

Consider RRIRFRPPRLPRPRPRPLITPRP, for which the “shrunken log2 fold change” value is -0.503.

Turning to RRIRSRPPRLPRPRPRPMFWPRP, the “shrunken log2 fold change” value worked out at 0.332.

For RRIRERPPRLPRPRPRPVWRPRP, the “shrunken log2 fold change” value is 0.202.

RRIRARPPRLPRPRPRPQDDPRP: the “shrunken log2 fold change” value is 0.274.

For the sequence RRIRDRPPRLPRPRPRPEHPPRP, the “shrunken log2 fold change” value worked out at 0.054.

Regarding RRIRYRPPRLPRPRPRPSSHPRP, the “shrunken log2 fold change” value is -2.24.

For RRIRWRPPRLPRPRPRPLFFPRP, the “shrunken log2 fold change” value was -0.00386.

Take RRIRARPPRLPRPRPRPYRGPRP: the “shrunken log2 fold change” value is -0.213.

In the case of RRIRKRPPRLPRPRPRPKQSPRP, the “shrunken log2 fold change” value is 0.525.

With RRIRYRPPRLPRPRPRPTAFPRP, the “shrunken log2 fold change” value amounted to 0.0438.

Consider RRIRSRPPRLPRPRPRPAWGPRP, for which the “shrunken log2 fold change” value stood at 0.51.

As for RRIRPRPPRLPRPRPRPHVAPRP, the “shrunken log2 fold change” value came to 0.218.

As for RRIRTRPPRLPRPRPRPDYIPRP, the “shrunken log2 fold change” value is -0.323.

As for RRIRFRPPRLPRPRPRPDDYPRP, the “shrunken log2 fold change” value is -0.0193.

Take RRIRGRPPRLPRPRPRPMMIPRP: the “shrunken log2 fold change” value was -0.0387.

As for RRIRERPPRLPRPRPRPGVSPRP, the “shrunken log2 fold change” value was -0.00674.

For the sequence RRIRRRPPRLPRPRPRPYCGPRP, the “shrunken log2 fold change” value is -0.379.

On to RRIRLRPPRLPRPRPRPFYNPRP, for which the “shrunken log2 fold change” value is -0.584.

Take RRIRMRPPRLPRPRPRPYNMPRP: the “shrunken log2 fold change” value is -0.348.

For the sequence RRIRARPPRLPRPRPRPQIPPRP, the “shrunken log2 fold change” value was -0.346.

For the sequence RRIRWRPPRLPRPRPRPHLKPRP, the “shrunken log2 fold change” value was -0.0706.

For RRIRERPPRLPRPRPRPCFLPRP, the “shrunken log2 fold change” value was -0.647.

Regarding RRIRNRPPRLPRPRPRPAEEPRP, the “shrunken log2 fold change” value turned out to be 0.119.

Turning to RRIRERPPRLPRPRPRPICEPRP, the “shrunken log2 fold change” value was 0.0105.

In the case of RRIRPRPPRLPRPRPRPAMDPRP, the “shrunken log2 fold change” value was 0.0161.

In the case of RRIRFRPPRLPRPRPRPDKPPRP, the “shrunken log2 fold change” value is 0.0269.

As to RRIRLRPPRLPRPRPRPSKCPRP, the “shrunken log2 fold change” value is -0.0487.

Take RRIRQRPPRLPRPRPRPTRPPRP: the “shrunken log2 fold change” value was determined as 1.05.

RRIRHRPPRLPRPRPRPWRQPRP: the “shrunken log2 fold change” value is 0.0449.

In the case of RRIRYRPPRLPRPRPRPVDNPRP, the “shrunken log2 fold change” value is -0.0156.

On to RRIRFRPPRLPRPRPRPCDIPRP, for which the “shrunken log2 fold change” value was -0.0737.

Consider RRIRQRPPRLPRPRPRPWNHPRP, for which the “shrunken log2 fold change” value is -0.0081.

With RRIRCRPPRLPRPRPRPMLSPRP, the “shrunken log2 fold change” value was -0.202.

Consider RRIRERPPRLPRPRPRPQGWPRP, for which the “shrunken log2 fold change” value worked out at 0.114.

For RRIRVRPPRLPRPRPRPPQPPRP, the “shrunken log2 fold change” value is 1.38.

On to RRIRKRPPRLPRPRPRPLTFPRP, for which the “shrunken log2 fold change” value stood at 0.299.

Take RRIRGRPPRLPRPRPRPVAEPRP: the “shrunken log2 fold change” value came to 1.38.

For RRIRKRPPRLPRPRPRPMCKPRP, the “shrunken log2 fold change” value stood at 0.0429.

For the sequence RRIRDRPPRLPRPRPRPFAVPRP, the “shrunken log2 fold change” value was -0.0136.

In the case of RRIRDRPPRLPRPRPRPTAWPRP, the “shrunken log2 fold change” value came to 1.51.

Turning to RRIRCRPPRLPRPRPRPHKKPRP, the “shrunken log2 fold change” value stood at 0.242.

RRIRFRPPRLPRPRPRPDKWPRP: the “shrunken log2 fold change” value amounted to 0.0538.

With RRIRLRPPRLPRPRPRPATVPRP, the “shrunken log2 fold change” value is -0.138.

RRIRCRPPRLPRPRPRPHQIPRP: the “shrunken log2 fold change” value is -0.389.

In the case of RRIRDRPPRLPRPRPRPMIIPRP, the “shrunken log2 fold change” value is 0.248.

On to RRIRPRPPRLPRPRPRPTIMPRP, for which the “shrunken log2 fold change” value was -0.335.

RRIRSRPPRLPRPRPRPHRLPRP: the “shrunken log2 fold change” value was -0.288.

In the case of RRIRVRPPRLPRPRPRPCMRPRP, the “shrunken log2 fold change” value was determined as 0.108.

For RRIRERPPRLPRPRPRPEHWPRP, the “shrunken log2 fold change” value was 0.0984.

Regarding RRIRGRPPRLPRPRPRPMDIPRP, the “shrunken log2 fold change” value was 0.0445.

Consider RRIRNRPPRLPRPRPRPGKVPRP, for which the “shrunken log2 fold change” value is -0.123.

As to RRIRRRPPRLPRPRPRPVIQPRP, the “shrunken log2 fold change” value stood at 0.177.

Take RRIRRRPPRLPRPRPRPLQAPRP: the “shrunken log2 fold change” value turned out to be 0.98.

Take RRIRCRPPRLPRPRPRPCNYPRP: the “shrunken log2 fold change” value is -1.4.
